Reference: the supplement of paper PMC10065799, “High-throughput profiling of sequence recognition by tyrosine kinases and SH2 domains using bacterial peptide display” (eLife, 2023)

Legend:
AncSZ = experiment: phosphorylation enrichment, bacterial display (enrichment ratio); higher = better substrate or ligand; peptides without Tyr show the background
EPHB1 = EPHB1 (UniProt P54762); experiment: as above
EPHB2 = EPHB2 (UniProt P29323); experiment: as above
FGFR1 = FGFR1 (UniProt P11362); experiment: as above
FGFR1, sequence (P11362 whole entry, looked up): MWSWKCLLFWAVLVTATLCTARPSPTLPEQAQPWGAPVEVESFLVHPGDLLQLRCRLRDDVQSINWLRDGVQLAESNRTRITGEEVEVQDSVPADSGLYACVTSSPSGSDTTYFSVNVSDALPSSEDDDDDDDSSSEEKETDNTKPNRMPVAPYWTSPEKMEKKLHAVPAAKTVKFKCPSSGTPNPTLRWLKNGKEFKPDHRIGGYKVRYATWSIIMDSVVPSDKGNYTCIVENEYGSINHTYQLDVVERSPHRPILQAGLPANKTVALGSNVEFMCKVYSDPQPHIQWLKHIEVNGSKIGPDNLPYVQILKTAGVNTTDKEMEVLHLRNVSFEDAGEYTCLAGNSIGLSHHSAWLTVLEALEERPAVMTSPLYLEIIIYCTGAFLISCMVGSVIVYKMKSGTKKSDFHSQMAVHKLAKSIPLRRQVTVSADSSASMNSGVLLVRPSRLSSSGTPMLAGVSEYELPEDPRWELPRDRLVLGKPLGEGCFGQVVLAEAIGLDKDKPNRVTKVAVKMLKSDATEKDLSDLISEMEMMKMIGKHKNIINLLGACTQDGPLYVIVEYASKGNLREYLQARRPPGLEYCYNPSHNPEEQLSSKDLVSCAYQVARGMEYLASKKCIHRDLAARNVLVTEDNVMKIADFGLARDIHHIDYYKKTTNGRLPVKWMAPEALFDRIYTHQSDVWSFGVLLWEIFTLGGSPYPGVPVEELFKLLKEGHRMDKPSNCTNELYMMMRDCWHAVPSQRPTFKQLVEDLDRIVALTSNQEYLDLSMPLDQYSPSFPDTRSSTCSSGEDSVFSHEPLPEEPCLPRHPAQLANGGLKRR

FGFR3 = FGFR3 (UniProt P22607); experiment: as above
FGFR3, sequence (P22607 whole entry, looked up): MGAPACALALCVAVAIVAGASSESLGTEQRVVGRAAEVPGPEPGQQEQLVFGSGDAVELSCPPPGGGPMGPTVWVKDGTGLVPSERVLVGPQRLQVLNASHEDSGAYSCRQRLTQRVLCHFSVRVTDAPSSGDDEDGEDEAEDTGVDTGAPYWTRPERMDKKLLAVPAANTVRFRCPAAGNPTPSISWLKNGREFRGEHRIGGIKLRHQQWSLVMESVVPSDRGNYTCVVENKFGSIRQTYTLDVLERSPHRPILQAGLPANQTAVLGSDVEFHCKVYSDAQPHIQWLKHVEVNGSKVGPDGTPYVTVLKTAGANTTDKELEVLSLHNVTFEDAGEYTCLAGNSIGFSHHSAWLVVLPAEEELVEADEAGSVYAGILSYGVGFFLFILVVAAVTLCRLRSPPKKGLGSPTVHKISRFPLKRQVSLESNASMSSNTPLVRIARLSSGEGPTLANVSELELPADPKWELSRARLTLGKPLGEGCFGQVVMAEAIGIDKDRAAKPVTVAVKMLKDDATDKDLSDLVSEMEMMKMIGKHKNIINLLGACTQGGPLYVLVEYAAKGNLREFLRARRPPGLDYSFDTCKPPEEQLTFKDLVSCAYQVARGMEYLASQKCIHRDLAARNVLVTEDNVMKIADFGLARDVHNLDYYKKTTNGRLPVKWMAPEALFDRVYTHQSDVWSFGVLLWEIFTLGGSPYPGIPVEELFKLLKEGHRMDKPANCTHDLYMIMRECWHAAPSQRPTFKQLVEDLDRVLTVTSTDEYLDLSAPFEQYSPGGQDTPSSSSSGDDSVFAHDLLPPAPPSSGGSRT

Fer (mouse) = experiment: as above
Fes = Fes (UniProt P07332); experiment: as above
Fyn = Fyn (UniProt P06241); experiment: as above
Fyn, sequence (P06241 whole entry, looked up): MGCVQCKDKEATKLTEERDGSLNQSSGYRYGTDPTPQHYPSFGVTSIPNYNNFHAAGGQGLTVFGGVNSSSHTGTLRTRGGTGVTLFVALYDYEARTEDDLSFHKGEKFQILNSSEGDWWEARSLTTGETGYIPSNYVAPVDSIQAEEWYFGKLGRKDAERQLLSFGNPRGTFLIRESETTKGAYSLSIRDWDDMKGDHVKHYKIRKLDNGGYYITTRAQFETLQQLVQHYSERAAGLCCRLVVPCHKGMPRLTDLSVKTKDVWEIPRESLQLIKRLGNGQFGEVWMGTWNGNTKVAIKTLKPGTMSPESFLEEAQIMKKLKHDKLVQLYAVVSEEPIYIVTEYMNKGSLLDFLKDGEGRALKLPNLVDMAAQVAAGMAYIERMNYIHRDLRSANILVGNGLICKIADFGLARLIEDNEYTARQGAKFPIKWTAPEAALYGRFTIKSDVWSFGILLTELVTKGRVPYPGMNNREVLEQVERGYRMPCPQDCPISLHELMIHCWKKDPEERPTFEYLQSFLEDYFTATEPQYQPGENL

Hck = Hck (UniProt P08631); experiment: as above
Hck, sequence (P08631 whole entry, looked up): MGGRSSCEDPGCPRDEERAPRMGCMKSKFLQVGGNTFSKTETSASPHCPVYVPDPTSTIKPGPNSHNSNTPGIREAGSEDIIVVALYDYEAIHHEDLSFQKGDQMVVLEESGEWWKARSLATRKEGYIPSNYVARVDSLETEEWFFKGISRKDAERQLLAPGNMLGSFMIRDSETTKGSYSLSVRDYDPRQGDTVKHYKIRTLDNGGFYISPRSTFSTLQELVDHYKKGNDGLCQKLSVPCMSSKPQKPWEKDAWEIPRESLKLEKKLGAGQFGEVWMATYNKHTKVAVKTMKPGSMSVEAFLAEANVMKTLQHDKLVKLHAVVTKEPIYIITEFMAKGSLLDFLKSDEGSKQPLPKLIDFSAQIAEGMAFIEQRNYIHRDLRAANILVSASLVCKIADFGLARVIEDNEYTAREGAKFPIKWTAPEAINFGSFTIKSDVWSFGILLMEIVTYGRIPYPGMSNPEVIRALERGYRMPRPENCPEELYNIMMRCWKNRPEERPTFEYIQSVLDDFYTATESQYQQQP

Jak2 = Jak2 (UniProt O60674); experiment: as above
MERTK = MERTK (UniProt Q12866); experiment: as above
c-Abl (mouse) = experiment: as above
c-Src = experiment: as above
Grb2 SH2 = Grb2 SH2 (UniProt P62993); experiment: SH2 binding enrichment of the phosphorylated peptide, bacterial display (enrichment ratio); higher = better substrate or ligand; peptides without Tyr show the background
SHP2-C SH2 = experiment: as above
c-Src SH2 = experiment: as above
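Wherever SH2 binding enrichment of the phosphorylated peptide, bacterial display is given: peptide library displayed on the E. coli surface as eCPX fusions, selected cells deep-sequenced, score is each peptide's frequency after selection divided by its frequency in the input.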
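Wherever phosphorylation enrichment, bacterial display is given: 11-residue human phosphosite peptides and single-mutation variants displayed on the E. coli surface, counted by deep sequencing, each peptide's frequency after selection divided by its frequency in the unselected input library; frequency after pTyr selection over input frequency; kinase dosed for 20-30% of maximal phosphorylation in three min.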

EPHB1, sequence (P54762 whole entry, looked up): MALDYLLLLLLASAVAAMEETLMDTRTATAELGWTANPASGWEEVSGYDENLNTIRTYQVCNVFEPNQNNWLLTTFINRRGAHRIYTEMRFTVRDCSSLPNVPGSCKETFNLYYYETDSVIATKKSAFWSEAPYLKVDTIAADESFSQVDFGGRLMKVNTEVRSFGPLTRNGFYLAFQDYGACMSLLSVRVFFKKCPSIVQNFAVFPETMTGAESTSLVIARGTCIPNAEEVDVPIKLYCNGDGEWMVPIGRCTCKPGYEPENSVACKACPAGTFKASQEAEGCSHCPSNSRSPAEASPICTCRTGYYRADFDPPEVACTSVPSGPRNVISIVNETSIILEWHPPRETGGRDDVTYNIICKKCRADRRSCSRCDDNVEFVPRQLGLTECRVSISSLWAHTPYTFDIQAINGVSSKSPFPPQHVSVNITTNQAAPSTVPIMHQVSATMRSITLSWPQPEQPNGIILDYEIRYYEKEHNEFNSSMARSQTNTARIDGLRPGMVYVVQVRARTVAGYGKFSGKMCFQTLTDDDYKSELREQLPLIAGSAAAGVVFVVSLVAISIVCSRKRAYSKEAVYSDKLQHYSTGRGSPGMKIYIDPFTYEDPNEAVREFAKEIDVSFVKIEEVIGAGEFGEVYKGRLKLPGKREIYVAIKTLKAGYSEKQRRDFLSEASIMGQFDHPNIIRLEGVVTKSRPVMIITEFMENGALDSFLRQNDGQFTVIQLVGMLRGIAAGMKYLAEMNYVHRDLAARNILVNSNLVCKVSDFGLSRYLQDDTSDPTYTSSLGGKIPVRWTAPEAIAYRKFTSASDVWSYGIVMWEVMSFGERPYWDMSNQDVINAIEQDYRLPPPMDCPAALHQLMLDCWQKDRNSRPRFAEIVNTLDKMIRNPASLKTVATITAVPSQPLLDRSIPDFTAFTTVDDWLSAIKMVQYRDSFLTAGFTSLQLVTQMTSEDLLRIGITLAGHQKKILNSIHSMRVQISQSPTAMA
EPHB2, sequence (P29323 whole entry, looked up): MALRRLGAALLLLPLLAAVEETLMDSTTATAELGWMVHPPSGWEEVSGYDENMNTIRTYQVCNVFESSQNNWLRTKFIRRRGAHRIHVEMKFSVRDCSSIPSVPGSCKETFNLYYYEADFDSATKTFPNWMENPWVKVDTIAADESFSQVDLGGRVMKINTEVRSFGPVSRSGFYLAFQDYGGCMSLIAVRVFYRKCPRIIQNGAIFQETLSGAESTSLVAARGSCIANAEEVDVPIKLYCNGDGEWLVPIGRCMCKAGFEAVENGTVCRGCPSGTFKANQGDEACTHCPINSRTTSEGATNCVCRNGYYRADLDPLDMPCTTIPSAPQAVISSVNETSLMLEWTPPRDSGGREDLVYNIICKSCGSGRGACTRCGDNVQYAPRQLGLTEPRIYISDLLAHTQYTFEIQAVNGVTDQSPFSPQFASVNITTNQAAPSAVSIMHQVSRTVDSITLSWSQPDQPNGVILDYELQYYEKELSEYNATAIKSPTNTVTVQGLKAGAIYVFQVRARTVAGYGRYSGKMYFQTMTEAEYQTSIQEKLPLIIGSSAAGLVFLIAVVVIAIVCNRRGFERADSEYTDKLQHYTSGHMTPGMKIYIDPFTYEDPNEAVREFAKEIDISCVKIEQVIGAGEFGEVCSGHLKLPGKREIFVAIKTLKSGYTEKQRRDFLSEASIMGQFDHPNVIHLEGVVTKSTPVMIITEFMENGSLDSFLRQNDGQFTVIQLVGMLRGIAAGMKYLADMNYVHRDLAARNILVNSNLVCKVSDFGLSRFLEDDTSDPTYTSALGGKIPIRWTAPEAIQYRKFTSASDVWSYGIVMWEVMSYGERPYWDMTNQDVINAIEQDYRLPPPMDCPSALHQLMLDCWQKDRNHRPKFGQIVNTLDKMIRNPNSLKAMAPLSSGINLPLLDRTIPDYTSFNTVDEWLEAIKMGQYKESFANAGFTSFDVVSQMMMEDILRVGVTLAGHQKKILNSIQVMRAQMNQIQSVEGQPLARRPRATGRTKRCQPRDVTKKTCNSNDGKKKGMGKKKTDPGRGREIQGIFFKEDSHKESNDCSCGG

SH2 binding enrichment (Grb2 SH2) | SH2 binding enrichment (SHP2-C SH2) | SH2 binding enrichment (c-Src SH2) | Sequence | phosphorylation enrichment (AncSZ) | phosphorylation enrichment (EPHB1) | phosphorylation enrichment (EPHB2) | phosphorylation enrichment (FGFR1) | phosphorylation enrichment (FGFR3) | phosphorylation enrichment (Fer (mouse)) | phosphorylation enrichment (Fes) | phosphorylation enrichment (Fyn) | phosphorylation enrichment (Hck) | phosphorylation enrichment (Jak2) | phosphorylation enrichment (MERTK) | phosphorylation enrichment (c-Abl (mouse)) | phosphorylation enrichment (c-Src)
0.554 | 0.476 | 0.367 | PSVVAYPKRSQ [MARK3_Y432] | 0.834 | 0.517 | 0.413 | 0.39 | 0.949 | 0.531 | 0.793 | 0.565 | 0.573 | 0.531 | 0.409 | 0.522 | 0.309
1.07 | 1.12 | 0.759 | PYRFIYMAVQH [PTPN11_Y515_Q510P] | 1.92 | 3.56 | 2.45 | 1.87 | 1.76 | 2.9 | 2.08 | 5.01 | 5.48 | 1.08 | 2.14 | 1.67 | 3.36
0.707 | 0.882 | 0.655 | QAINEYEKWLE [MAP9_Y603] | 2.34 | 1.67 | 1.03 | 1.12 | 1.39 | 0.961 | 1.81 | 1 | 1.2 | 1.73 | 0.663 | 1.06 | 0.631
1.05 | 0.427 | 0.389 | QDDTVYMGKVI [DCTN1_Y1244_T1249I] | 1.72 | 0.873 | 0.841 | 0.913 | 0.938 | 0.943 | 1.72 | 1.45 | 1.33 | 1.57 | 0.765 | 2.06 | 0.942
0.93 | 0.564 | 1.06 | QDDYSYPSRQM [LDLR_Y847_G844D] | 13.3 | 3.54 | 7.79 | 2.04 | 1.66 | 1.66 | 2.17 | 1.46 | 1.02 | 1.74 | 1.13 | 4.49 | 1.02
0.584 | 0.685 | 0.41 | QEALEYFMKQT [PIK3CA_Y1038_M1043T] | 3.3 | 1.31 | 1.64 | 1.67 | 2.76 | 1.82 | 3.76 | 1.93 | 1.05 | 3.01 | 0.813 | 1.85 | 1.6
1 | 0.755 | 7.13 | QNTGGYYDLYG [PTPN11_Y62_D61G] | 1.32 | 1.85 | 2.78 | 13.8 | 10 | 2.69 | 1.64 | 8.15 | 8.85 | 6.15 | 8.88 | 1.01 | 5.87
1.09 | 0.93 | 0.61 | QPEDIYHQTWA [GBA_Y244_G241E] | 2 | 0.843 | 0.673 | 6.95 | 4.93 | 3.02 | 1.09 | 7.34 | 4.47 | 0.955 | 3.42 | 9.69 | 5.92
0.674 | 0.519 | 0.47 | QQLQGYIPSNF [FRK_Y99_YF] | 1.11 | 0.763 | 0.881 | 0.884 | 1.09 | 0.679 | 1.29 | 0.938 | 0.647 | 0.981 | 0.878 | 0.899 | 0.546
0.865 | 1.48 | 0.823 | QQLVAYYSKHT [SRC_Y232_A237T] | 1.13 | 1.42 | 0.92 | 0.818 | 0.926 | 0.42 | 0.951 | 0.889 | 0.653 | 0.932 | 0.629 | 0.906 | 0.591
0.84 | 0.783 | 0.469 | QTEAPYRFIYM [PTPN11_Y511_Q510P] | 1.41 | 0.93 | 1.25 | 7.24 | 5.25 | 11 | 1.6 | 0.697 | 0.984 | 1.22 | 1.4 | 1.15 | 1.93

The next lines start with the sequence.

Sequence | SH2 binding enrichment (Grb2 SH2) | SH2 binding enrichment (SHP2-C SH2) | SH2 binding enrichment (c-Src SH2) | phosphorylation enrichment (AncSZ) | phosphorylation enrichment (EPHB1) | phosphorylation enrichment (EPHB2) | phosphorylation enrichment (FGFR1) | phosphorylation enrichment (FGFR3) | phosphorylation enrichment (Fer (mouse)) | phosphorylation enrichment (Fes) | phosphorylation enrichment (Fyn) | phosphorylation enrichment (Hck) | phosphorylation enrichment (Jak2) | phosphorylation enrichment (MERTK) | phosphorylation enrichment (c-Abl (mouse)) | phosphorylation enrichment (c-Src)
PQIVKYRPDCI [LDHB_Y128_S129R] | 1.26 | 0.817 | 0.671 | 0.89 | 0.627 | 0.131 | 0.302 | 0.537 | 0.12 | 0.839 | 0.699 | 0.238 | 0.391 | 0.133 | 0.069 | 0.663
PRDSGYSFETI [MAP1B_Y1921_S1917R_YF] | 1.1 | 0.742 | 1.5 | 1.25 | 0.657 | 1.22 | 0.912 | 1.14 | 1.33 | 1.89 | 0.581 | 0.823 | 2.36 | 0.755 | 1.63 | 1.31
PSNTDYPGPHS [TP63_Y171] | 0.792 | 0.58 | 0.401 | 0.809 | 0.589 | 0.661 | 0.511 | 0.722 | 0.582 | 0.909 | 0.438 | 0.482 | 0.768 | 0.552 | 1.01 | 0.5
PSPMPCASCQM [FOXL2_Y215_Y215C] | 0.797 | 0.606 | 0.523 | 0.541 | 0.354 | 0.287 | 0.445 | 0.559 | 0.488 | 0.516 | 0.603 | 0.41 | 0.766 | 0.588 | 0.799 | 0.37
PTTKTYFPHFG [HBA1_Y43_D48G] | 1.06 | 0.792 | 0.5 | 0.658 | 0.543 | 0.322 | 0.501 | 0.556 | 0.435 | 0.645 | 0.458 | 0.372 | 0.958 | 0.397 | 0.491 | 0.747
PVDVAYRRGFF [PLEC_Y2967_YF] | 0.696 | 0.599 | 0.56 | 0.909 | 0.456 | 0.44 | 0.504 | 0.535 | 0.584 | 0.833 | 0.424 | 0.595 | 0.728 | 0.586 | 0.574 | 0.475
PVGVLYKVKVF [PTS_Y128_YF] | 0.706 | 0.607 | 0.418 | 1.45 | 1.14 | 0.906 | 0.842 | 1.4 | 0.659 | 1.61 | 0.716 | 0.619 | 1.21 | 0.381 | 0.882 | 0.388
PVKTPYSLKRW [BMPR2_Y979_R974P] | 1.46 | 1.2 | 0.992 | 1.04 | 0.499 | 0.84 | 0.653 | 0.789 | 0.609 | 1.49 | 0.63 | 0.427 | 1.36 | 0.586 | 1.14 | 0.987
PYSEPYADYGG [APBA1_Y187] | 0.675 | 0.651 | 6.47 | 2.11 | 1.04 | 1.18 | 3.21 | 2.23 | 1.34 | 1.72 | 1.89 | 1.41 | 1.56 | 0.911 | 1.03 | 4.44
QADVTYVNTQL [MERTK_Y872_I871T] | 14.4 | 0.84 | 0.964 | 1.11 | 0.717 | 0.584 | 0.504 | 0.606 | 0.714 | 0.942 | 0.518 | 0.518 | 0.703 | 0.522 | 1.11 | 0.682
QAFSWYQHQRA [NDST1_Y714_R709Q_YF] | 0.778 | 0.86 | 0.709 | 1.61 | 1.03 | 0.71 | 0.687 | 1.02 | 0.863 | 1.64 | 0.658 | 0.547 | 1.43 | 0.569 | 0.731 | 0.371
QFNPEYVQQAS [LRRC7_Y1058_H1054Y_YF] | 0.871 | 0.642 | 0.458 | 1.79 | 1.02 | 0.778 | 0.741 | 0.761 | 0.648 | 1.46 | 0.687 | 0.792 | 1.3 | 0.638 | 0.904 | 0.518
QGIPWYHSQSP [FOXF1_Y331_R330W] | 1.43 | 1.14 | 1.15 | 0.645 | 0.435 | 0.503 | 0.571 | 0.441 | 0.533 | 0.642 | 0.46 | 0.547 | 0.977 | 0.517 | 0.633 | 0.601
QITQVCGFYDE [PPP2CA_Y127_Y127C] | 0.963 | 0.58 | 0.747 | 1.21 | 1.1 | 0.849 | 0.648 | 0.995 | 0.856 | 1.57 | 0.636 | 0.865 | 1.19 | 0.522 | 1.08 | 0.823
QKLPLYILENN [VPS13B_Y2774_S2773L] | 0.746 | 0.802 | 0.642 | 0.967 | 0.942 | 0.607 | 0.81 | 0.761 | 0.551 | 1.28 | 0.556 | 0.709 | 1.06 | 0.758 | 1 | 0.964
QLRPGYIPIPV [BAG3_Y93] | 0.848 | 0.585 | 0.493 | 0.953 | 0.774 | 0.592 | 0.735 | 1.09 | 0.645 | 0.915 | 0.736 | 0.639 | 1.08 | 0.772 | 0.796 | 0.734
QMQAAYQKVVA [HBD_Y131] | 1.03 | 0.418 | 0.937 | 0.504 | 0.373 | 0.441 | 0.419 | 0.72 | 0.519 | 0.578 | 0.47 | 0.47 | 0.497 | 0.412 | 0.422 | 0.293
QMVGMYAFSYM [AVPR2_Y124_S126F] | 0.638 | 0.651 | 0.562 | 2.25 | 2.45 | 1.84 | 0.804 | 1.15 | 4.47 | 1.86 | 1.55 | 1.52 | 1.44 | 6.65 | 1.27 | 1.35
QNRELYSEGLG [CNKSR1_Y665] | 0.74 | 0.616 | 0.536 | 0.516 | 0.536 | 0.454 | 0.578 | 0.397 | 0.309 | 0.789 | 0.434 | 0.895 | 0.497 | 0.443 | 1.33 | 0.446
QQLVAYYSKHA [SRC_Y232] | 0.851 | 0.632 | 0.62 | 1.75 | 0.765 | 0.916 | 0.71 | 1.14 | 0.559 | 1.15 | 0.723 | 0.781 | 1.3 | 0.944 | 0.934 | 1.02
QRPGPYDRPGA [HNRNPH2_Y210] | 0.972 | 1.03 | 1.05 | 0.556 | 0.453 | 0.466 | 0.43 | 0.48 | 0.281 | 0.812 | 0.322 | 0.705 | 0.439 | 0.426 | 0.496 | 0.386
QRPYVYYYSYL [PTEN_Y176_R173P] | 1.17 | 1.14 | 0.734 | 2.26 | 4.84 | 4.08 | 9.79 | 7.23 | 2 | 2.35 | 3.38 | 3.7 | 6.45 | 8.05 | 1.59 | 5.34
